Data reported in US6784153B1, “Methods of homing molecules to lung using membrane dipeptidase” (The Burnham Institute, priority 1998, dated 2004).

How the values were obtained:
murine MDP = biological target: T1, murine MDP (Mus musculus, UniProt P31428); test: phage binding to COS-1 cells transfected with MDP
T1 construct: The amplified 1.3 kb murine MDP cDNA was digested with KpnI and XbaI, and inserted into the same sites of the pcDNA3 expression vector; expressed in transfected cells; host or cells: COS-1 cells, pcDNA3 expression vector
T1 sequence (P31428 17-384): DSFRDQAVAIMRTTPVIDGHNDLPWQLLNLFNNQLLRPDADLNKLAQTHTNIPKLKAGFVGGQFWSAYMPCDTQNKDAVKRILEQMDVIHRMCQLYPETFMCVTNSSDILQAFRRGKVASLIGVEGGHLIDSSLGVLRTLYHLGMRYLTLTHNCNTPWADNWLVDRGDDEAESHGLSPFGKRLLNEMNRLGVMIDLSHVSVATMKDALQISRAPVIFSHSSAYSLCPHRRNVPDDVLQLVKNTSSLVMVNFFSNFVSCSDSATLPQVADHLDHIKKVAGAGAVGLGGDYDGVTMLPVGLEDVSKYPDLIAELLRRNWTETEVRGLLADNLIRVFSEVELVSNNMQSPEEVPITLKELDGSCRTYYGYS
Procedure: The COS-1 cell line, which is known to have low or no detectable level of MDP activity, has been used extensively to study MDP structure and function (Keynan et al., supra, 1996; Keynan et al., Biochem, J. 326:47-51 (1997)). COS-1 cells were trasfected with murine MDP and used to assay binding to SEQ ID NOS: 1 and 2 as described below.
For transfection into COS-1 cells, a murine MDP expression vector was prepared as follows. Total mouse lung RNA was isolated using Qiagen RNA purification columns (Qiagen; Santa Clarita, Calif.) and used as a template for first strand cDNA synthesis with reverse transcriptase and a mixture of random hexamers and poly-dT oligonucleotides (GIBCO/BRL; Grand Island, N.Y.). Mouse MDP cDNA (Pasqualini et al., J. Cell Biol. 130:1189-1196 (1995)) was amplified from the cDNA pool by PCR using the oligonucleotide pair: […] (SEQ ID NO: 446), which contains a KpnI adaptor, and […] (SEQ ID NO: 447), which contains an XbaI adaptor, using Taq polymerase from GIBCO/BRL. The amplified 1.3 kb murine MDP cDNA was digested with KpnI and XbaI, and inserted into the same sites of the pcDNA3 expression vector (Invitrogen; Carlsbad, Calif.) using DNA restriction enzymes and T4 DNA ligase from New England Biolabs (Beverly, Mass.). Successful cloning of the murine MDP cDNA was confirmed by DNA sequencing. Transfection of the COS-1 cells was performed with the Superfect Reagent from Qiagen as recommended by the manufacturer.
Phage binding to COS-1 cells transfected with MDP was determined as follows. Briefly, 10^7 COS-1 cells were transfected with 10 μg of either the MDP expression vector or the vector alone. After 48 hours, cells were scraped gently from the dish, washed once, and subjected to the phage binding assay or membrane dipeptidase activity assay described above. For the phage binding assay, 5×10^6 cells and 10^10 transducing units (TU) of phage input were used. For measurement of membrane dipeptidase activity, 10^6 cells were lysed in 100 μl of PBS/octylglycoside without protease inhibitors. A 10 μl aliquot of the extract was used to measure MDP activity.

lung = test: immunohistologic analysis of lung homing phage; format: in vivo, mice
Procedure: Phage displaying homing peptides were detected in lung, pancreas and skin by immunostaining histologic sections obtained 5 min after administration of phage expressing a lung, pancreas or skin homing peptide (“peptide-phage”) to a mouse. Following administration of the peptide-phage, mice were handled as described above and various organs, including lung, pancreas and skin, were removed and fixed in Bouin's solution (SIGMA). Histologic sections were prepared and reacted with anti-M13 (phage) antibodies (Pharmacia Biotech; see U.S. Pat. No. 5,622,699, supra, 1997; Pasqualini and Ruoslahti, supra, 1996). Visualization of the bound anti-M13 antibody was performed using a second antibody conjugated to peroxidase (SIGMA) according to the manufacturer's instructions.
Phage displaying the lung homing peptide, GFE-1 (SEQ ID NO: 1), were administered intravenously to mice and, after 5 minutes of circulation, the lung was isolated and processed as described above. […] However, staining of bronchiolar walls and some larger blood vessels was absent.

CGFECVRQCPERC [lung homing peptide]
phage bound to MDP transfected cells than to mock transfected cells (murine MDP; 5×10^6 COS-1 cells, 10^10 TU phage): 4 fold
inhibition of binding of GFE-1 and GFE-2 phage to MDP-transfected cells (murine MDP; data not shown): completely inhibited
immunohistochemical staining of lung (lung; 5 min after intravenous phage): staining of the alveolar capillaries was observed
staining of pancreas and skin after lung homing phage (lung; control tissues): no staining was observed in pancreas and skin
